From patent US20130137180 come the findings set out here.

Data set [1] relates to AAVS1 ZFN left (synthetic). Kind of data set: cell_activity. The following applies: pair with right ZFN; A549 clones positive for HindIII site (308 of 933); none with oligo alone.
Data set [2] relates to AAVS1 ZFN right (synthetic). Nature of the data set: cell_activity. The following applies: pair with left ZFN; A549 clones positive for HindIII site (308 of 933); none with oligo alone.

In data set [1], “ACCCCACAGTGG (double strand) [AAVS1 left ZFN binding site]” gave an activity of 33%.
For the sequence “TAGGGACAGGAT (double strand) [AAVS1 right ZFN binding site]”, the activity in data set [2] turned out to be 33%.
